# Source: US20150118700
# Changes are numbered by the printed parent chain.
# T1: α-fructosyl hexapeptide (α-fructosyl-valyl-histidyl-leucyl-threonyl-propyl-glutamic acid)
# T1 chain: VHLTPE
# T2: α-fructosyl valyl histidine
# T2 chain: VH
# B1: amadoriase exhibiting 95% sequence identity with ketoamine oxidase derived from Curvularia clavata (Cc95FX) (protein)
# chain: MAPSRANTSVIVVGGGGTIGSSTALHLVRSGYTPSNITVLDAYPIPSSQSAGNDLNKIMGIRLRNKVDLQLSLEARQMWREDDLFKEYFHNTGRLDCAHGEEGLADLRQAYQALLDANAGLEETTEWLDSEDEILKKMPLLSRDQIKGWKAVYSQDGGWLAAAKAINAIGEYLRAQGVKFGFGGAGSFKQPLLAEGVCIGVETVDGTRYYADKVVLAAGAWSPTLVELHEQCVSKAWVYGHIQLTPEEAAEYKNSPVVYNGDVGFFFEPNEHGVIKVCDEFPGFTRFKMHQPFGAKAPKRISVPRSHAKHPTDTIPDASEKSIRKAIATFLPKFTEKELFNRHLCWCTDTADAALLICEHPEWKNFVLATGDSGHSFKLLPNIGKHVVELLEGTLADDLAHAWRWRPGSGDALKSRRSAPAKDLADMPGWKHDDVVKSKL
# B2: Cc95FX-62D/63H/106K/110L/113K/353S (protein)
# chain: B1 chain with R62D, L63H, D106K, A110L, A113K, A353S
# B3: CFP-T7 (protein)
# chain: MTSNRADTRVIVVGGGGTIGSSTALHLVRSGYAPANITVLDTFEIPSAQSAGHDLNKIMGIRLRNKVDLQMSLEARQMWKEDELFQPFFHNTGRMDCEHTPEGIEDLKKQYQALHDAGAGLEKTHAWLDNEDEILSKMPLLQRDQIQGWKAIWSQDGGWLAAAKAINAIGQFLKERGVKFGFGGAGSFKQPLFDDEGTTCIGVETADGTKYYADKVVLAAGAWSPTLVDLEDQCCSKAWVYAHIQLTPEEAAEYKGVPVVYNGEFGFFFEPDEFGVIKVCDEFPGFSRFKEHQPYGAPSPKRISVPRSHAKHPTDTYPDASEVSIKKAIATFLPRFQDKELFNRALCWCTDTADAALLMCEHPKWKNFILATGDSGHSFKILPNVGKYVVELIEGRLPEEMAYQWRWRPGGDALKSRRAAPPKDLADMPGWKHDPKL
# B4: CFP-T7-H21 (protein)
# chain: B3 chain with R62D, D106K, Q110L, A113R
# B5: CFP-T7-62D (protein)
# chain: B3 chain with R62D
# B6: CFP-T7-H20 (protein)
# chain: B3 chain with R62D, D106K, Q110L, A113K
# B7: CFP-T7-H35 (protein)
# chain: B3 chain with R62D, L63H, E102K, D106K, Q110L, A113K, A355S
# B8: CFP-T7-H2-62N (protein)
# chain: B3 chain with R62N, Q110L
# How the values were obtained:
# [1] = molecular target: T1, α-fructosyl hexapeptide …
# [2] = molecular target: T2, α-fructosyl valyl histidine
protein,measurement,setting,value
B1,"αF6P oxidation activity, relative to αFVH oxidation activity designated to be 100 (relative (αFVH = 100))",[1],0
B2,"αF6P oxidation activity, relative to αFVH oxidation activity designated to be 100 (relative (αFVH = 100))",[1],237
B3,"Specific activity (U/mg), 1 mM αFVH",[2],16.5 U/mg
same,"Specific activity (U/mg), 1 mM αF6P",[1],0 U/mg
same,ΔA at 751 nm (hydrogen peroxide generated upon oxidation of αF6P) against αF6P concentration,[1],no correlation was observed between ΔA and αF6P concentration
same,"αF6P oxidation activity, relative to αFVH oxidation activity designated to be 100 (relative (αFVH = 100))",[1],0
B4,"Specific activity (U/mg), 1 mM αFVH",[2],4.05 U/mg
same,"Specific activity (U/mg), 1 mM αF6P",[1],0.795 U/mg
same,"αF6P oxidation activity, relative to αFVH oxidation activity designated to be 100 (relative (αFVH = 100))",[1],20.8
B5,"Specific activity (U/mg), 1 mM αFVH",[2],1.62 U/mg
same,"Specific activity (U/mg), 1 mM αF6P",[1],0.018 U/mg
same,"specific activity on αF6P, fold over PnFX (Present Invention 26/Comparative Example 3)",[1],"2 times (Present Invention 26/Comparative Example 3) to 1,940 times (Present Invention 25/Comparative Example 2) greater"
B6,"Specific activity (U/mg), 1 mM αFVH",[2],4.28 U/mg
same,"Specific activity (U/mg), 1 mM αF6P",[1],0.85 U/mg
same,"αF6P oxidation activity ratio (reference, designated to be 100) (relative (CFP-T7-H20 = 100))",[1],100
same,"αF6P oxidation activity, relative to αFVH oxidation activity designated to be 100 (relative (αFVH = 100))",[1],20.5
B7,"Specific activity (U/mg), 1 mM αFVH",[2],1.9 U/mg
same,"Specific activity (U/mg), 1 mM αF6P",[1],4.27 U/mg
same,"specific activity on αF6P, fold over FAOAo2 (Present Invention 25/Comparative Example 2)",[1],"2 times (Present Invention 26/Comparative Example 3) to 1,940 times (Present Invention 25/Comparative Example 2) greater"
same,ΔA at 751 nm (hydrogen peroxide generated upon oxidation of αF6P) against αF6P concentration,[1],a favorable correlation was developed between ΔA and αF6P concentration in the range of αF6P concentration from 0.5 µM to 10 µM
same,"αF6P oxidation activity ratio, relative to CFP-T7-H28 = 100 as the table shows (relative (CFP-T7-H28 = 100))",[1],206
B8,"αF6P oxidation activity ratio, relative to CFP-T7-H2 designated to be 100 (relative (CFP-T7-H2 = 100))",[1],120
